In this experiment the target is T1, TNFR1 (Homo sapiens, UniProt P19438).
T1 chain: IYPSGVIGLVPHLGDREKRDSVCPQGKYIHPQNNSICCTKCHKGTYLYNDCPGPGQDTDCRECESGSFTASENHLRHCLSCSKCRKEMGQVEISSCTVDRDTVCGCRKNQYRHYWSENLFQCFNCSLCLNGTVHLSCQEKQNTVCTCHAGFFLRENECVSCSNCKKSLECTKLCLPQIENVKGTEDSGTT
The experiment is described as follows: yeast display SC50.

B1: T97S (designed binder)
chain: SMEEEVEKAAKEYEKKKKEAIEKHLEKLKAKDKEAAERFLKELEEAAKEYAKDEAKTMSEEEAKRRAKKYKEKVLLSELSEEEQKEIKEAEEKLVRSILKYVEEAAK
As to B1, the “apparent Kd (screen)” value is 2.25 nM.

B2: L40R (designed binder)
chain: SMEEEVEKAAKEYEKKKKEAIEKHLEKLKAKDKEAAERFRKELEEAAKEYAKDEAKTMSEEEAKRRAKKYKEKVLLSELSEEEQKEIKEAEEKLVRTILKYVEEAAK
B2: the “apparent Kd (screen)” value worked out at 0.49 nM.

B3: Y13D (designed binder)
chain: SMEEEVEKAAKEDEKKKKEAIEKHLEKLKAKDKEAAERFLKELEEAAKEYAKDEAKTMSEEEAKRRAKKYKEKVLLSELSEEEQKEIKEAEEKLVRTILKYVEEAAK
In the case of B3, the “apparent Kd (screen)” value turned out to be 12.5 nM.

B4: R38M (designed binder)
chain: SMEEEVEKAAKEYEKKKKEAIEKHLEKLKAKDKEAAEMFLKELEEAAKEYAKDEAKTMSEEEAKRRAKKYKEKVLLSELSEEEQKEIKEAEEKLVRTILKYVEEAAK
B4: the “apparent Kd (screen)” value was 0.869 nM.

B5: Y101I (designed binder)
chain: SMEEEVEKAAKEYEKKKKEAIEKHLEKLKAKDKEAAERFLKELEEAAKEYAKDEAKTMSEEEAKRRAKKYKEKVLLSELSEEEQKEIKEAEEKLVRTILKIVEEAAK
With B5, the “apparent Kd (screen)” value was found to be 0.869 nM.

B6: Q84P (designed binder)
chain: SMEEEVEKAAKEYEKKKKEAIEKHLEKLKAKDKEAAERFLKELEEAAKEYAKDEAKTMSEEEAKRRAKKYKEKVLLSELSEEEPKEIKEAEEKLVRTILKYVEEAAK
Take B6: the “apparent Kd (screen)” value was determined as 22.2 nM.

B7: V102E (designed binder)
chain: SMEEEVEKAAKEYEKKKKEAIEKHLEKLKAKDKEAAERFLKELEEAAKEYAKDEAKTMSEEEAKRRAKKYKEKVLLSELSEEEQKEIKEAEEKLVRTILKYEEEAAK
In the case of B7, the “apparent Kd (screen)” value was found to be 1.4 nM.

B8: K31P (designed binder)
chain: SMEEEVEKAAKEYEKKKKEAIEKHLEKLKAPDKEAAERFLKELEEAAKEYAKDEAKTMSEEEAKRRAKKYKEKVLLSELSEEEQKEIKEAEEKLVRTILKYVEEAAK
Turning to B8, the “apparent Kd (screen)” value is 3 nM.

B9: Y101N (designed binder)
chain: SMEEEVEKAAKEYEKKKKEAIEKHLEKLKAKDKEAAERFLKELEEAAKEYAKDEAKTMSEEEAKRRAKKYKEKVLLSELSEEEQKEIKEAEEKLVRTILKNVEEAAK
Consider B9, for which the “apparent Kd (screen)” value turned out to be 0.446 nM.

B10: E5N (designed binder)
chain: SMEENVEKAAKEYEKKKKEAIEKHLEKLKAKDKEAAERFLKELEEAAKEYAKDEAKTMSEEEAKRRAKKYKEKVLLSELSEEEQKEIKEAEEKLVRTILKYVEEAAK
B10: the “apparent Kd (screen)” value was 0.539 nM.

B11: L43V (designed binder)
chain: SMEEEVEKAAKEYEKKKKEAIEKHLEKLKAKDKEAAERFLKEVEEAAKEYAKDEAKTMSEEEAKRRAKKYKEKVLLSELSEEEQKEIKEAEEKLVRTILKYVEEAAK
Turning to B11, the “apparent Kd (screen)” value came to 0.869 nM.

B12: E103K (designed binder)
chain: SMEEEVEKAAKEYEKKKKEAIEKHLEKLKAKDKEAAERFLKELEEAAKEYAKDEAKTMSEEEAKRRAKKYKEKVLLSELSEEEQKEIKEAEEKLVRTILKYVKEAAK
B12: the “apparent Kd (screen)” value came to 0.446 nM.

B13: H24W (designed binder)
chain: SMEEEVEKAAKEYEKKKKEAIEKWLEKLKAKDKEAAERFLKELEEAAKEYAKDEAKTMSEEEAKRRAKKYKEKVLLSELSEEEQKEIKEAEEKLVRTILKYVEEAAK
As for B13, the “apparent Kd (screen)” value stood at 0.869 nM.

These data come from paper PMC12416549 (2024).
